Experiments:
[1] = molecular target: HER2-binding monomeric IgA2m(2) with heterogeneous complex N-glycans (human); experiment: ITC; 10 μM IgA in the cell titrated with 160 μM FcαRI from the syringe; PBS pH 7.4, 25 °C, 19 injections
[2] = molecular target: HER2-binding monomeric IgA1 with mostly biantennary GlcNAc2Man3GlcNAc2 (GnGn) complex N-glycans (human); experiment: SEC-MALS; SE-HPLC-MALS, Superdex 200 10/300 GL; IgA mixed with the receptor in a molar ratio of 1:4 starting from 25 μg of IgA
[3] = molecular target: HEK293F-produced IgA1-Fc deletion protein lacking the Fab domain (human); experiment: as above
[4] = molecular target: HER2-binding monomeric IgA2m(2) with complex N-glycans (human); experiment: ITC; 10 μM IgA in the sample cell titrated with 160 μM FcαRI; 25 °C; PBS, pH 7.4
[5] = molecular target: HER2-binding monomeric IgA1 with heterogeneous complex N-glycans, produced in HEK293F cells (human); experiment: as above
[6] = molecular target: HER2-binding monomeric IgA2m(2) with sialylated (NaNa) N-glycans (human); experiment: SPR; Biacore T200; IgA glycoforms captured on a Protein L chip, FcαRI glycoforms injected in single-cycle kinetics at five concentrations (31.5 to 500 nM); 1x PBS, 0.05% Tween, 0.1% BSA; 1:1 binding model; average of four independent experiments
[7] = molecular target: HER2-binding monomeric IgA1 with Man3GlcNAc2 (MM) N-glycans (human); experiment: as above
[8] = molecular target: HER2-binding monomeric IgA1 with terminally sialylated (NaNa) N-glycans (human); experiment: as above
[9] = molecular target: HER2-binding monomeric IgA2m(2) with Man3GlcNAc2 (MM) N-glycans (human); experiment: as above

Chain of HEK293F-produced IgA1-Fc deletion protein lacking the Fab domain (human) (P01876 1-364, stated change not applied): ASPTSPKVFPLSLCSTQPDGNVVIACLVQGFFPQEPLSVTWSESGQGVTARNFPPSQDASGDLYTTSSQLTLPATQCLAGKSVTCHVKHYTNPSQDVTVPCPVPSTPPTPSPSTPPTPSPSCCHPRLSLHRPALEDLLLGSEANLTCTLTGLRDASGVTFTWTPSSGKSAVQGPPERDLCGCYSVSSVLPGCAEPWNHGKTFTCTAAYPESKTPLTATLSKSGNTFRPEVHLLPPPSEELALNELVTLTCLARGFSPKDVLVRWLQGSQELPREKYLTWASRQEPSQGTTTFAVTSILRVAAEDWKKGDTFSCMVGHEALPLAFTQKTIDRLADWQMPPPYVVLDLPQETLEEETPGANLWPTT

| Kd [1] [nM] | stoichiometry N [1] | stoichiometry N (FcαRI per IgA) [2] | stoichiometry N (FcαRI per IgA1-Fc) [3] | stoichiometry N (FcαRI per IgA) [4] | stoichiometry N (FcαRI per IgA) [5] | Kd [6] [nM] | koff [6] [s⁻¹] | kon [6] [M⁻¹ s⁻¹] | Kd [7] [nM] | koff [7] [s⁻¹] | kon [7] [M⁻¹ s⁻¹] | Kd [8] [nM] | koff [8] [s⁻¹] | kon [8] [M⁻¹ s⁻¹] | Kd [9] [nM] | koff [9] [s⁻¹] | kon [9] [M⁻¹ s⁻¹] | Substance |
| --- | --- | --- | --- | --- | --- | --- | --- | --- | --- | --- | --- | --- | --- | --- | --- | --- | --- | --- |
| 90.7 | 1.36 | – | – | – | – | – | – | – | – | – | – | – | – | – | – | – | – | extracellular domain of human FcαRI with oligomannosidic N-glycans (from UniProt P24071 22-227) (receptor) |
| – | – | 1 | 1 | 1.3 | 1.3 | – | – | – | – | – | – | – | – | – | – | – | – | extracellular domain of the human FcαRI (CD89) with complex sialylated N-glycans (from UniProt P24071 22-227) (receptor) |
| – | – | – | – | 1.3 | 1.3 | – | – | – | – | – | – | – | – | – | – | – | – | extracellular domain of the human FcαRI with oligomannosidic N-glycans (from UniProt P24071 22-227) (receptor) |
| – | – | – | – | – | – | 25.2 | 0.03 | 1.3e+06 | 25.2 | 0.05 | 1.9e+06 | 25.8 | 0.06 | 2.3e+06 | 26.2 | 0.03 | 1.2e+06 | extracellular domain of human FcαRI with single GlcNAc residues at each N-glycosylation site (from UniProt P24071 22-227) (receptor) |
| 161 | 1.33 | – | – | – | – | 206 | 0.06 | 300000 | 187 | 0.07 | 350000 | 149 | 0.07 | 520000 | 225 | 0.06 | 280000 | extracellular domain of human FcαRI (CD89) with complex sialylated N-glycans (from UniProt P24071 22-227) (receptor) |
